For series [1], the system named is OMP-PN42 tumors. In words: OMP-PN42 xenograft, gemcitabine plus nab-paclitaxel with complete DLL4/VEGF inhibition. Type of series: in vivo, NOD-SCID mice. On the procedure:
FIG. 11 is a graph showing activity of anti-DLL4/VEGF bispecific in combination with gemcitabine plus nab-paclitaxel (ABRAXANE®). OMP-PN42 tumors were implanted in NOD-SCID mice. Tumor-bearing mice (n=10/group) were treated with control Ab, gemcitabine alone (30 mg/kg weekly), gemcitabine plus nab-paclitaxel, or the combination of anti-DLL4/VEGF (305B83, 21R30, B20) and gemcitabine plus nab-paclitaxel. Antibodies were dosed 10 mg/kg, weekly.
In patient-derived xenograft experiments, the stroma and vasculature is comprised of murine cells, whereas the tumor cells are human. Because DLL4 and VEGF are expressed in both tumor cells and in the stroma/vasculature, the previous experiments that were carried out with DLL4 and VEGF antagonists that block signaling of the human, but not murine, proteins and may have underestimated the full anti-tumor effect of blocking these pathways. To address this issue, the effect of simultaneous blockade of DLL4 and VEGF in both human tumor and murine stroma/vasculature cells in our xenograft studies were evaluated. This was done with experiments including surrogate antibodies—anti-mouse DLL4 (21R30) and anti-mouse VEGF (B20) in addition to 305B83 (which blocks human DLL4 and VEGF). Complete DLL4/VEGF inhibition in combination with gemcitabine plus nab-paclitaxel in OMP-PN42 tumors was tested.

The subject of series [2] is OMP-PN8 pancreatic tumor cells. In words: OMP-PN8 pancreatic xenograft, antibodies in combination with gemcitabine. Type of series: in vivo, NOD-SCID mice. Particulars: with gemcitabine 70 mg/kg weekly for four weeks, then antibody maintained, demcizumab, bevacizumab 15 mg/kg, bispecific 30 mg/kg. On the procedure:
FIG. 9 is a graph showing that DLL4/VEGF bispecific is active in combination with gemcitabine in pancreatic cancer. OMP-PN8 pancreatic tumor cells were injected into NOD-SCID mice. Tumors were allowed to grow for 24 days until they had reached an average tumor volume of 110 mm^3. […] After four weeks of combination treatment, the gemcitabine was discontinued and the antibody treatments were maintained. Gemcitabine was dosed at 70 mg/kg, weekly.
Following four weeks of treatment, the gemcitabine treatment was discontinued and the antibody treatments were maintained.

The test system of series [3] is ovarian serous carcinoma tumor model OMP-OV19. Put plainly: Tumor recurrence after chemotherapy termination, OMP-OV19. Type of series: in vivo, NOD.SCID mice. Particulars: paclitaxel 15 mg/kg with or without antibody once a week for 4 weeks, chemotherapy maintenance 3-4 weeks, monitored up to 2 months after discontinuation. As for the experimental part:
FIGS. 7A and 7B are graphs showing delay in tumor recurrence by 305B83+21R30 and B20 following chemotherapy termination. Ovarian OMP-OV19 and pancreatic OMP-PN42-tumor bearing animals were randomized and treatment began when mean tumor volumes reached approximately 100-150 mm^3. NOD. SCID mice were treated with 15 mg/kg paclitaxel in OMP-OV19 and 10 mg/kg gemcitabine plus 30 mg/kg nab-pacltiaxel in OMP-PN42 with or without antibody once a week for 4 weeks, followed by a chemotherapy for 3-4 weeks. Thereafter, treatment was discontinued and tumor growth was monitored up to 2 months.
To determine the effect of simultaneous blockade of DLL4 and VEGF by the bi-specific antibody 305B83 plus 21R30 (anti-mDLL4) and B20 (anti-mVEGF) on tumor recurrence, an ovarian serous carcinoma tumor model OMP-OV19 and a pancreatic adenocarcinoma model OMP-PN42 were treated in combination with standard of care agents (paclitaxel in ovarian cancer and gemcitabine/nab-paclitaxel in pancreatic cancer) for four weeks followed by a chemotherapy maintenance phase for 3-4 weeks. Subsequently, tumor growth was monitored for up to two months following the discontinuation of treatment.

Series [4] has as its system xenograft tumor models. The following applies: Hoey et al., 2009; U.S. Pat. No. 7,750,124; cited from earlier work.
The subject of series [5] is OMP-PN8 pancreatic tumor cells. In words: Serial transplantation study of tumor initiating cell frequency, OMP-PN8. Type of series: in vivo. Particulars: four weeks of treatment, 90 tumor cells into 10 new mice, 83 days without treatment. On the procedure:
FIG. 10 is a graph showing reduction of tumor-initiating cell frequency from anti-DLL4 activity. […] After four weeks of treatment, tumors were harvested, and the human tumor cells in the xenograft were purified. Ninety tumor cells from each treatment group were injected into new cohorts of 10 mice. Tumors were allowed to grow for 83 days without any further treatment. The volumes of the individual mice in the experiment are shown in the graph.
To determine the effect of DLL4 and VEGF inhibition on tumor initiating cell frequency in pancreatic cancer, serial transplantation studies were performed. […] Following four weeks of treatment, the tumors were harvested, and tumor cells from each treatment were implanted into a new set of mice. Tumors were then allowed to grow for 83 days without treatment. In the control group, nine out of ten mice grew large tumors (FIG. 10).

The subject of series [6] is vasculature-related genes, Notch target genes. In words: Vasculature density and stromal/vascular and Notch target gene expression in treated xenograft tumors. The series is classed as in vivo, mouse. The following applies: human genes in tumors. As for the experimental part: FIGS. 5A-5C are photomicrographs and graphs showing anti-VEGF inhibition of angiogenesis is dominant over anti-DLL4 hyperproliferation in animals receiving 305B83.
These experiments were carried out by including surrogate antibodies—anti-mouse DLL4 (21R30) and anti-mouse VEGF (B20).

For series [7], the system named is OMP-C8 colon tumor cells. In words: Human-mouse chimera skin graft model, luciferase-labeled OMP-C8 colon tumor growth. Type of series: in vivo, NOD/SCID mice. Particulars: OMP-C8 in human skin graft; 25 mg/kg intraperitoneally once a week; bioluminescence; compared to control antibody.
Method: Neonatal foreskin graft of about 2 cm^2 was implanted into the lateral trunk of anesthetized NOD/SCID mice. Luciferase-labeled human OMP-C8 colon tumor cells were then injected intradermally into the human skin graft 6 weeks post implant. Treatment was initiated 2 weeks later. Tumor growth was monitored by measurement of bioluminescence with the IVIS-200 Imaging System (Caliper Life Sciences).
To evaluate the effect of the bispecific anti-DLL4/VEGF antibody on tumor growth in a microenvironment composed of human cells, the human-mouse chimera skin graft model, in which human tumor cells are implanted intradermally into the full thickness of human skin previously transplanted onto mice was used.
Series [8] is described as follows: Phase 1a trial side effects. Type of series: in vivo, human. Particulars: patients receiving 305B83. On the procedure:
To manage this side effect, a treatment algorithm was developed. First, if the patient's blood pressure exceeds 140/90, the patient is instructed to phone the principal investigator. The initial goal is to normalize blood pressure in 48-72 hours. Treatment with antihypertensive is to be adjusted daily if the blood pressure is not less than 140/90.

Consider `Nc1ccn([C@@H]2O[C@H](CO)[C@@H](O)C2(F)F)c(=O)n1` [gemcitabine, reference compound], for which, in series [1] (gemcitabine 30 mg/kg weekly, alone or plus nab-paclitaxel), the “tumor growth under chemotherapy” value is on record as “minimal effect”.
Regarding “bevacizumab: humanized anti-VEGF monoclonal antibody [reference compound]”, the “tumor growth after gemcitabine withdrawal” value in series [2] is listed as “had no effect”.
`CC(=O)O[C@H]1C(=O)[C@@]2(C)[C@H]([C@H](OC(=O)c3ccccc3)[C@]3(O)C[C@H](OC(=O)[C@H](O)[C@@H](NC(=O)c4ccccc4)c4ccccc4)C(C)=C1C3(C)C)[C@]1(OC(C)=O)CO[C@@H]1C[C@@H]2O` [paclitaxel]: the “tumor growth during and after chemotherapy” value in series [3] is listed as “grew continuously during the course of study”.

B1: demcizumab: anti-DLL4 antibody, also known as OMP-21M18 or 21M18 (antibody, chains of the INN, looked up, V domains shown)
VH: QVQLVQSGAEVKKPGASVKISCKASGYSFTAYYIHWVKQAPGQGLEWIGYISSYNGATNYNQKFKGRVTFTTDTSTSTAYMELRSLRSDDTAVYYCARDYDYDVGMDYWGQGTLVTVSS
VL: DIVMTQSPDSLAVSLGERATISCRASESVDNYGISFMKWFQQKPGQPPKLLIYAASNQGSGVPDRFSGSGSGTDFTLTISSLQAEDVAVYYCQQSKEVPWTFGGGTKVEIK
Regarding B1, the “tumor growth after gemcitabine withdrawal” value in series [2] is “significantly delayed tumor growth”. In series [4], the “frequency of cancer stem cells” value is given as “reduce the frequency of cancer stem cells” and the tumor growth result is listed as “inhibit tumor growth”. For the same molecule, the “tumor growth frequency after serial transplantation” value in series [5] is recorded as “tumor growth frequency was reduced”.

B2: 305B83: bispecific antibody 219R45-MB-21R83, anti-VEGF/anti-DLL4; blocks human DLL4 and VEGF (antibody, chains of the INN, looked up, V domains shown)
VH: QVQLVQSGAEVKKPGASVKISCKASGYSFTAYYIHWVKQAPGQGLEWIGYISNYNRATNYNQKFKGRVTFTTDTSTSTAYMELRSLRSDDTAVYYCARDYDYDVGMDYWGQGTLVTVSS
VL: DIVMTQSPDSLAVSLGERATISCRASESVDNYGISFMKWFQQKPGQPPKLLIYAASNQGSGVPDRFSGSGSGTDFTLTISSLQAEDVAVYYCQQSKEVPWTFGGGTKVEIK
VH2: QVQLVQSGAEVKKPGASVKVSCKASGYTFTNYWMHWVRQAPGQGLEWMGDINPSNGRTSYKEKFKRRVTLSVDKSSSTAYMELSSLRSEDTAVYFCTIHYDDKYYPLMDYWGQGTLVTVSS
VL2: DIVMTQSPDSLAVSLGERATISCRASESVDNYGISFMKWFQQKPGQPPKLLIYAASNQGSGVPDRFSGSGSGTDFTLTISSLQAEDVAVYYCQQSKEVPWTFGGGTKVEIK
Turning to B2, in series [6], the “Notch target gene expression in tumors” value is “modulated Notch target gene expression in tumors similarly to anti-DLL4”. Also, the “inhibition of tumor growth (TGI)” value in series [7] amounted to 87 % TGI. Further, the “tumor growth, complete DLL4/VEGF inhibition with chemotherapy” value in series [1] (305B83 plus surrogates 21R30 and B20, 10 mg/kg weekly, with gemcitabine plus nab-paclitaxel) was “complete tumor regression”. For the same molecule, the side effects observed entry in series [8] is “development or exacerbation of hypertension in some patients”.

Values taken from patent US11339213B2, “Methods and compositions for treatment of cancer” (MEREO BIOPHARMA 5, INC., priority 2015, dated 2022).
